From patent US20180200383A1

Target: human folate receptor 1 (FOLR1) (human) (UniProt P15328)
Assay: cell-based or functional assay

Sequence of human folate receptor 1 (FOLR1) (human) (P15328 25-234 limits assumed, form in doubt): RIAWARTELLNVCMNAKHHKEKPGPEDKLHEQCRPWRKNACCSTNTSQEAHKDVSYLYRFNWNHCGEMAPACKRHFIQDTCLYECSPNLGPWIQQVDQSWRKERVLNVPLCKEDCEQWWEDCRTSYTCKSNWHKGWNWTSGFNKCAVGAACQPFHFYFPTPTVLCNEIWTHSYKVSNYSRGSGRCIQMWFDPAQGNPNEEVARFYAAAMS

B1: IMGN853 (immunoconjugate of antibody huMov19, sulfo-SPDB and DM4) (antibody, from a related filing, V domains shown, part only)
VH: QVQLVQSGAEVVKPGASVKISCKASGYTFTGYFMNWVKQSPGQSLEWIGRIHPYDGDTFYNQKFQGKATLTVDKSSNTAHMELLSLTSEDFAVYYCTRYDGSRAMDYWGQGTTVTVSS
VL: DIVLTQSPLSLAVSLGQPAIISCKASQSVSFAGTSLMHWYHQKPGQQPRLLIYRASNLEAGVPDRFSGSGSKTDFTLTISPVEAEDAATYYCQQSREYPYTFGGGTKLEIKR
- IC50 of cytotoxicity on Jeg-3 cells (5 days, WST-8): 1 nM
